T1: human CX3CR1 (human, UniProt P49238 1-355)
T1 construct: overexpressed on CHO, BA/F3 or HEK293T cells; also called huCX3CR1; hCX3CR1
T1 sequence: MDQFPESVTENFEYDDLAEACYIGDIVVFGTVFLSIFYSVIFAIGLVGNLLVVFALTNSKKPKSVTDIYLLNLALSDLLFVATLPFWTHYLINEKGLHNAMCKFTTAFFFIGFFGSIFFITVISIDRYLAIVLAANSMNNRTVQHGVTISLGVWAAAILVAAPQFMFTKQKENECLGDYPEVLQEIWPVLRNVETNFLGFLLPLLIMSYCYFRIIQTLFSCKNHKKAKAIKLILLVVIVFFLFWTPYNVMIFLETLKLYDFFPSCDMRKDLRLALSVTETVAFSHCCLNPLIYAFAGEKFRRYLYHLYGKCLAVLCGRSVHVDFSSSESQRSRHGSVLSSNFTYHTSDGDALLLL

B1: C100CX3CR1BII043 (VHH)
VHH: EVQLVESGGGSVQPGESLRLSCAASGSIFSSNAMAWYRQAPGKRRDLVAAINSVGVTKYADSVKGRFTISRDNSKNTVYLQMNSLRPEDTAVYYCTSDPRRGWDTRYWGQGTLVTVSS
notes: 66B02 with A14P, A74S, K83R, Q108L; not shown: myc/His tag
B2: C100CX3CR1BII045 (VHH)
VHH: DVQLVESGGGSVQPGESLRLSCAASGSIFSSNAMAWYRQAPGKRRDLVAAINSVGVTKYADSVKGRFTISRDNSKNTVYLQMNSLRPEDTAVYYCTSDPRRGWDTRYWGQGTLVTVSS
notes: 66B02 with E1D, A14P, A74S, K83R, Q108L; not shown: myc/His tag
B3: C100CX3CR1BII057 (VHH)
VHH: EVQLVESGGGLVQPGGSLRLSCAASGSIFSSNAMAWYRQAPGKRRELVAAINSVGVTKYADSVKGRFTISRDNSKNTVYLQMNSLRPEDTAVYYCTSDPRRGWDTRYWGQGTLVTVSS
notes: 66B02 with S11L, A14P, E16G, D46E, A74S, K83R, Q108L; not shown: myc/His tag
B4: C100CX3CR1BII048 (VHH)
VHH: EVQLVESGGGSVQPGGSLRLSCAASGSIFSSNAMAWYRQAPGKRRDLVAAINSVGVTKYADSVKGRFTISRDNSKNTVYLQMNSLRPEDTAVYYCTSDPRRGWDTRYWGQGTLVTVSS
notes: 66B02 with A14P, E16G, A74S, K83R, Q108L; not shown: myc/His tag
B5: C100CX3CR1BII061 (VHH)
VHH: EVQLVESGGGLVQPGGSLRLSCAASGSIFSSNAMAWYRQAPGKRRDLVAAINSVGVTKYADSVKGRFTISRDNSKNTVYLQMNSLRPEDTAVYYCTSDPRRGWDTRYWGQGTLVTVSS
notes: 66B02 with S11L, A14P, E16G, A74S, K83R, Q108L; not shown: myc/His tag
B6: C100CX3CR1BII060 (VHH)
VHH: EVQLVESGGGLVQPGGSLRLSCAASGSIFSSNAMAWYRQAPGKQRELVAAINSVGVTKYADSVKGRFTISRDNSKNTVYLQMNSLRPEDTAVYYCTSDPRRGWDTRYWGQGTLVTVSS
notes: 66B02 with S11L, A14P, E16G, R44Q, D46E, A74S, K83R, Q108L; not shown: myc/His tag
B7: C100CX3CR1BII050 (VHH)
VHH: EVQLVESGGGSVQPGESLRLSCAASGSIFSSNAMAWYRQAPGKRRELVAAINSVGVTKYADSVKGRFTISRDNSKNTVYLQMNSLRPEDTAVYYCTSDPRRGWDTRYWGQGTLVTVSS
notes: 66B02 with A14P, D46E, A74S, K83R, Q108L; not shown: myc/His tag
B8: C100CX3CR1BII056 (VHH)
VHH: EVQLVESGGGLVQPGGSLRLSCAASGSIFSSNAMAWYRQAPGKQRDLVAAINSVGVTKYADSVKGRFTISRDNSKNTVYLQMNSLRPEDTAVYYCTSDPRRGWDTRYWGQGTLVTVSS
notes: 66B02 with S11L, A14P, E16G, R44Q, A74S, K83R, Q108L; not shown: myc/His tag
B9: C100CX3CR1BII047 (VHH)
VHH: EVQLVESGGGLVQPGESLRLSCAASGSIFSSNAMAWYRQAPGKRRDLVAAINSVGVTKYADSVKGRFTISRDNSKNTVYLQMNSLRPEDTAVYYCTSDPRRGWDTRYWGQGTLVTVSS
notes: 66B02 with S11L, A14P, A74S, K83R, Q108L; not shown: myc/His tag
B10: C100CX3CR1BII049 (VHH)
VHH: EVQLVESGGGSVQPGESLRLSCAASGSIFSSNAMAWYRQAPGKQRDLVAAINSVGVTKYADSVKGRFTISRDNSKNTVYLQMNSLRPEDTAVYYCTSDPRRGWDTRYWGQGTLVTVSS
notes: 66B02 with A14P, R44Q, A74S, K83R, Q108L; not shown: myc/His tag
B11: CX3CR1BIIPMP61C9 (VHH)
VHH: EVQLVKSGGGSVQAGESLRLSCAASGSIFSSNAMAWYRQALGKQRDLVALIDSAGITKYADSVKGRFTISRDNAKNTVYLQMNRLKPEDTAVYYCASDARRGWNTKYWGQGTLVTVSS
notes: tested as periplasmic extract; not shown: C-terminal c-myc and His6 tags
B12: CX3CR1BIIPMP54B1 (VHH)
VHH: EVQLVESGGGSVQAGESLRLSCAASGSIFSSNAMAWYRQAPGKQRDLVAGINSVGITKYADSVKGRFTISRDNAKNTAYLQMNSLKPEDTAVYYCTSDPRRGWDTRYWGQGTQVTVSS
notes: as for B11
B13: CX3CR1BIIPMP54F6 (VHH)
VHH: KVQLVESGGGSVQAGESLRLSCAASGSIFSSNAMAWYRQAPGKQRDLVAAINSVGITKYADSVKGRFTISRDNAKNTVYLQMNSLKPEDTAVYYCTSDPRRGWDTRYWGQGTLVTVSS
notes: as for B11
B14: CX3CR1BIIPMP54A5 (VHH)
VHH: EVQLVESGGGSVQAGESLRLSCAASGSIFSSNAMAWYRQAPGKQRDLVAGINSVGITKYADSVKGRFTISRDNAKNTVYLQMNSLKPEDTAVYYCTSDPRRGWDTRYWGQGTLVTVSS
notes: as for B11
B15: CX3CR1BIIPMP61A11 (VHH)
VHH: EVQLVESRGGSVQAGESLRLSCAASGSIFSSNAMAWYRQAPGKQRDLVAVINSVGITKYADSVKGRFTISGDNAKNTVYLQMNSLKPEDTAVYYCTSDARRGWDTRYWGQGTQVTVSS
notes: as for B11
B16: CX3CR1BIIPMP54A3 (VHH)
VHH: EVQLVESGGGSVQAGESLRLSCAASGSIFSSNAMAWYRQAPGKQRDLVAGINSVGITKYADSVKGRFTISRDNAKNTVYLQMNSLKPEDTAVYYCTSDPRRGWDTRYWGQGTQVTVSS
notes: as for B11
B17: CX3CR1BIIPMP54B2 (VHH)
VHH: EVQLVESGGGSVQAGESLRLSCAASGTIFSSNAMAWYRQAPGKQRDLVAGINSVDITKYADSVKGRFTISRDNAKNTVYLQMNSLKPEDTAVYYCTSDPRRGWNTRYWGQGTLVTVSS
notes: as for B11
B18: CX3CR1BIIPMP61F4 (VHH)
VHH: EVQLVESGGGSVQAGASLRLSCAASGSIFSSNAMAWYRQAPGKQRDLVAVINTVGITKYADSVKGRFTISRDNAKNTVYLQMNSLKPEDTAVYYCTSDARRGWDTRYWGQGTLVTVSS
notes: as for B11
B19: CX3CR1BIIPMP54B5 (VHH)
VHH: EVQLVESGGGSVQAGESLRLSCAASGSIFSSNAMAWYRQAPGKQRDLVAGINSVGITKYADSVKGRFTISRDNAKNTAYLQMNSLKPEDTAVYYCTSDPRRGWDTRYWGQGTLVTVSS
notes: tested as periplasmic extract; also called CX3CR1BII54B5; not shown: C-terminal c-myc and His6 tags
B20: CX3CR1BIIPMP61D5 (VHH)
VHH: KVQLVESGGGSVQAGESLRLSCAASGSIFSSNAMAWYRQAFGKQRDLVALINSVGITKYADSVKGRFTISRDNAKNTVYLQMNSLKPEDTAVYYCTSDPRRGWDTRYWGQGTQVTVSS
notes: as for B11
B21: CX3CR1BIIPMP61D1 (VHH)
VHH: EVQLVESGGGSVQAGESLRLSCAASGSIFSSNAMAWYRQAFGKQRDLVALINSVGITKYADSVKGRFTISRDNAKNTVYLQMNSLKPEDTAVYYCTSDPRRGWDTRYWGQGTQVTVSS
notes: as for B11
B22: CX3CR1BIIPMP61F10 (VHH)
VHH: KVQLVESGGGSVQAGESLRLSCAASGTIFSSNAMAWYRQAPGKQRDLVAGINSVDITKYADSVKGRFTISRDNAKNTVYLQMNSLKPEDTAVYYCTSDPRRGWNTRYWGQGTQVTVSS
notes: as for B11
B23: CX3CR1BIIPMP61G2 (VHH)
VHH: EVQLVKSGGGSVQAGESLRLSCAASGSIFSSNAMAWYRQAPGKQRDLVALINSVGITKYADSVKGRFTISRDNAKNTVYLQMNSLKPEDTAVYYCTSDPRRGWDTRYWGQGTQVTVSS
notes: as for B11
B24: CX3CR1BIIPMP54H4 (VHH)
VHH: EVQLVESGGGSVQAGESLRLSCAASGSIFSSNAMAWYRQAPGKQRDLVAVINSVGITKYADSVKGRFTISGDNAKNTVYLQMNSLKPEDTAVYYCTSDARRGWDTRYWGQGTLVTVSS
notes: as for B11
B25: CX3CR1BII66B02 (N52Q, Q108L) (VHH, name in Kabat numbering)
VHH: EVQLVESGGGSVQAGESLRLSCAASGSIFSSNAMAWYRQAPGKRRDLVAAIQSVGVTKYADSVKGRFTISRDNAKNTVYLQMNSLKPEDTAVYYCTSDPRRGWDTRYWGQGTLVTVSS
notes: Kabat numbering
B26: CX3CR1BII66B02 (N52G, Q108L) (VHH, name in Kabat numbering)
VHH: EVQLVESGGGSVQAGESLRLSCAASGSIFSSNAMAWYRQAPGKRRDLVAAIGSVGVTKYADSVKGRFTISRDNAKNTVYLQMNSLKPEDTAVYYCTSDPRRGWDTRYWGQGTLVTVSS
notes: Kabat numbering

molecular target: T1, human CX3CR1; experiment: fractalkine competition FACS

Row | % block [%] | IC50 [nM] | Binder
1 | 101 | 2.2 | B1
2 | 101 | 2.2 | B2
3 | 99.4 | 14 | B3
4 | 101 | 1.9 | B4
5 | 98.9 | 1.4 | B5
6 | 98.4 | 190 | B6
7 | 101 | 17 | B7
8 | 101 | 16 | B8
9 | 101 | 2.3 | B9
10 | 101 | 18 | B10

molecular target: T1, human CX3CR1; experiment: periplasmic extract, A647-fractalkine competition FACS, CHO-huCX3CR1
From the text: Periplasmic extracts were screened in a human CX3CR1/human Fractalkine FACS competition assay to assess the blocking capacity of the expressed VHHs. Human CX3CR1 was presented on CHO cells overexpressing CX3CR1. Both a setup using cells harvested from an actively growing culture and a setup using frozen cells was used. As a detection reagent labeled fractalkine was used (R&D Systems, Minneapolis, Minn., USA) labeled with alexa647 (A647-Fractalkine) at a degree of labeling of 1. To setup the assay, first a titration series of the labeled fractalkine was performed on the CHO-huCX3CR1 cells in order to determine the EC50 value for binding. Initially screening was performed at a higher concentration of fractalkine (3 nM) to increase the assay robustness. To increase the sensitivity of the screening to a maximum, the EC30 concentration (1 nM) was chosen for subsequent screening. In brief 50 μl of periplasmic extract was added to 6 nM labeled fractalkine (50 μ;) and 200 000 CHO-huCX3CR1 cells. After one hour incubation at 4 C, cells were washed three times before read out was performed on a FACS Array (Becton Dickinson). First a gate was set on the intact cells as determined from the scatter profile. Next, dead cells were gated out by their fluorescence profile from the PI stain (Sigma, St Louis, US). The fluorescence profile from the alexa647 label was determined for each sample and used for calculation of blocking capacity. As controls, conditions were taken along where there was no VHH present in the peri extract or a known irrelevant VHH and samples were included where excess cold fractalkine was included. For each sample the percentage block was determined using the control samples to determine the assay window.

Row | % block [%] | Binder
11 | 69.4 | B11
12 | 92.1 | B12
13 | 96.6 | B13
14 | 92.5 | B14
15 | 78 | B15
16 | 90.8 | B16
17 | 65.3 | B17
18 | 94.4 | B18
19 | 92.6 | B19
20 | 94.9 | B20
21 | 68.4 | B21
22 | 73.5 | B22
23 | 82 | B23
24 | 96 | B24

molecular target: T1, human CX3CR1; experiment: fractalkine competition FACS; remark: another data set of the same source

Row | % block [%] | IC50 [nM] | Binder
25 | 97.9 | 2.1 | B25
26 | 98 | 1.1 | B26
